Measurements reported in publication PMC3618350 (G3: Genes|Genomes|Genetics, 2013).
Where two headings read alike, the source gives them in different places.

T1: Rev7 (S. cerevisiae, UniProt P38927 1-245)
T1 sequence (looked up): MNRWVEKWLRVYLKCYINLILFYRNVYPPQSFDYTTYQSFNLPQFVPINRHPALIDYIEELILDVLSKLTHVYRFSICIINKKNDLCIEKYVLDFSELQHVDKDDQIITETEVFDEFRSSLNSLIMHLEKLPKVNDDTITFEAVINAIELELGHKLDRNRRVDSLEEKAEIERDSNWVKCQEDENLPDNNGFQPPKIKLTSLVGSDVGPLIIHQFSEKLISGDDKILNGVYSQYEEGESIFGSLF

T2: Rev1 (S. cerevisiae, UniProt P12689 1-985)
T2 sequence (looked up): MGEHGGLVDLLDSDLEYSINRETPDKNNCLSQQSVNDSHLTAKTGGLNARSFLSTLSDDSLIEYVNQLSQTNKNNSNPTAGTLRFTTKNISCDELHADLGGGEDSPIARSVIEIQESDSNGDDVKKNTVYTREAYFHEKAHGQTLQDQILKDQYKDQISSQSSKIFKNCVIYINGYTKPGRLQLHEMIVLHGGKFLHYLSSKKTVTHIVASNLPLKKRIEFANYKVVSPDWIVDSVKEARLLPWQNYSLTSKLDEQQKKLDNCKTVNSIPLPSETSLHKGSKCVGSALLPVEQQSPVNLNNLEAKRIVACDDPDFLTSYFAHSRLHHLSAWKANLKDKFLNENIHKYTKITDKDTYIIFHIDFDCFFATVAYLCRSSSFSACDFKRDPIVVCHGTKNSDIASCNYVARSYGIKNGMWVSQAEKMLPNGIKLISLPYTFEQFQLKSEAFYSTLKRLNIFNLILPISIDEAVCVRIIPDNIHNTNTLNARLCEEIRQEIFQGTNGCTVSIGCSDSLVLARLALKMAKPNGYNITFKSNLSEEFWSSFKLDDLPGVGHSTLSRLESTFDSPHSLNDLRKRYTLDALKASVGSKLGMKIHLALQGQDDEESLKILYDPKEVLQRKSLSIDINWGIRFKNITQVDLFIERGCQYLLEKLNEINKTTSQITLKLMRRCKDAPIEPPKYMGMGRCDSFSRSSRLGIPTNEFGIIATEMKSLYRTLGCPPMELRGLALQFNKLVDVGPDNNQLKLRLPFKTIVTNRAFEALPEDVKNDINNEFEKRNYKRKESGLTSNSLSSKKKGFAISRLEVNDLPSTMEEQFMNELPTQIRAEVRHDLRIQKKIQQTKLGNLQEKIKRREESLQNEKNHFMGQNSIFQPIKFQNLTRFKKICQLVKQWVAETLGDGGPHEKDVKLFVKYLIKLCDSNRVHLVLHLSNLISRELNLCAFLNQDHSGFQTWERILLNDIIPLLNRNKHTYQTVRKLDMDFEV

B1: Rad57 (natural protein, S. cerevisiae, UniProt P25301 1-460, looked up)
chain: MPRALSIKFDNTYMDLYDELPESKLLYDEEFSYLLDAVRQNGVCVVDFLTLTPKELARLIQRSINEVFRFQQLLVHEYNEKYLEICEKNSISPDNGPECFTTADVAMDELLGGGIFTHGITEIFGESSTGKSQLLMQLALSVQLSEPAGGLGGKCVYITTEGDLPTQRLESMLSSRPAYEKLGITQSNIFTVSCNDLINQEHIINVQLPILLERSKGSIKLVIIDSISHHLRVELQNKSFRESQENKNYLDRMAEKLQILAHDYSLSVVVANQVGDKPLANSPVAHRTYVTDYDYQLGWLVGWKNSTILYRQMNSLLGASSNNDEILSDDEDYMLIERVMSTVNDRNYDFFSKKKPPIIENKTVERNSSSPISRQSKKRKFDYRVPNLGLTWSNHVSTRILLQKSFKASTIIQRGEAHLYKGGDSASFWQVKRTMKVVYSTFAKPGQIAYQITKRGIETA
B2: Rec114 (natural protein, S. cerevisiae, UniProt P32841 1-428, looked up)
chain: MYEYCSVVIKKYSKYTIPSFAPNGFQSMLEPPQIDKWQHLSANCTLQFRVLLMDSRQILINVVLNNSTLLENIRLPLGDNQDLIQFSCKSPIISCKYISEEFGPRMLRRFQMNLPNDVEFNRTVVSLKNLNFVLRTARTSIAQSTITSQVQGNNNGTKVCFTEGPKVSSYTNPNTQFQTQNMIMDFSQRYQEESERESNNRSNITLPHDSIQIAQQIWPNTDLNVVQSSQDLNTPMATQTVLGRPESLIVQPLEVSQSPPNTTNCLPNAENKKKKVDTTSDFTSRKEIALCKTGLLETIHIPKERESQMQSVTGLDATPTIIWSPGKDNTAKKNTSNKKNIDDKLTNPQKSGNTHTPDRNKEVLPNGTLNETRKEASPSEGLTIRVKNVNRNASRKISKRLIKEKLKDEEFMKWVNKVETVLNKMFEK
B3: Rad54 (natural protein, S. cerevisiae, UniProt P32863 1-898, looked up)
chain: MARRRLPDRPPNGIGAGERPRLVPRPINVQDSVNRLTKPFRVPYKNTHIPPAAGRIATGSDNIVGGRSLRKRSATVCYSGLDINADEAEYNSQDISFSQLTKRRKDALSAQRLAKDPTRLSHIQYTLRRSFTVPIKGYVQRHSLPLTLGMKKKITPEPRPLHDPTDEFAIVLYDPSVDGEMIVHDTSMDNKEEESKKMIKSTQEKDNINKEKNSQEERPTQRIGRHPALMTNGVRNKPLRELLGDSENSAENKKKFASVPVVIDPKLAKILRPHQVEGVRFLYRCVTGLVMKDYLEAEAFNTSSEDPLKSDEKALTESQKTEQNNRGAYGCIMADEMGLGKTLQCIALMWTLLRQGPQGKRLIDKCIIVCPSSLVNNWANELIKWLGPNTLTPLAVDGKKSSMGGGNTTVSQAIHAWAQAQGRNIVKPVLIISYETLRRNVDQLKNCNVGLMLADEGHRLKNGDSLTFTALDSISCPRRVILSGTPIQNDLSEYFALLSFSNPGLLGSRAEFRKNFENPILRGRDADATDKEITKGEAQLQKLSTIVSKFIIRRTNDILAKYLPCKYEHVIFVNLKPLQNELYNKLIKSREVKKVVKGVGGSQPLRAIGILKKLCNHPNLLNFEDEFDDEDDLELPDDYNMPGSKARDVQTKYSAKFSILERFLHKIKTESDDKIVLISNYTQTLDLIEKMCRYKHYSAVRLDGTMSINKRQKLVDRFNDPEGQEFIFLLSSKAGGCGINLIGANRLILMDPDWNPAADQQALARVWRDGQKKDCFIYRFISTGTIEEKIFQRQSMKMSLSSCVVDAKEDVERLFSSDNLRQLFQKNENTICETHETYHCKRCNAQGKQLKRAPAMLYGDATTWNHLNHDALEKTNDHLLKNEHHYNDISFAFQYISH
B4: Spo11 (natural protein, S. cerevisiae, UniProt P23179 1-398, looked up)
chain: MALEGLRKKYKTRQELVKALTPKRRSIHLNSNGHSNGTPCSNADVLAHIKHFLSLAANSLEQHQQPISIVFQNKKKKGDTSSPDIHTTLDFPLNGPHLCTHQFKLKRCAILLNLLKVVMEKLPLGKNTTVRDIFYSNVELFQRQANVVQWLDVIRFNFKLSPRKSLNIIPAQKGLVYSPFPIDIYDNILTCENEPKMQKQTIFPGKPCLIPFFQDDAVIKLGTTSMCNIVIVEKEAVFTKLVNNYHKLSTNTMLITGKGFPDFLTRLFLKKLEQYCSKLISDCSIFTDADPYGISIALNYTHSNERNAYICTMANYKGIRITQVLAQNNEVHNKSIQLLSLNQRDYSLAKNLIASLTANSWDIATSPLKNVIIECQREIFFQKKAEMNEIDARIFEYK
B5: Mei4 (natural protein, S. cerevisiae, UniProt P29467 1-408, looked up)
chain: MSRGKLEDMEQKETSEVDWIICFALIQSRNPTLWKRALSRKKGDVEDVGALKSEKNLKINPRENSKHIYKWVAPFENGFLNNKSLFAHLEPIYNFLCQNKYKSFEDAVGLKELQSFSKDVSTADINNWFLPRYKILLKILSLKTKEIDFRGLSQVFQTLQILLVSHYSHRIDSDSSFKRTLIDVHVFNFIAKFLFNRILLKKNQNDPKWLQNFYDQGDGKHLCDKVDYKRLCSLHFTLIYSIINIQLIKIKTNQTFEPQILKYVSVLKLIEHILIIIESLIHVLIRFVSKHKLICINRKKAYCRVYLERELSLKKTYLKNFYSVISGVPEKELGGLLKILKIVILSLLETFESIEWQHLKPFLEKFPAHEISLQKKRKYIQAALLITAERNLIARFRLSRWFNETENI

Tests used:
Assay in all cases: two-hybrid
[1] = biological target: T1, Rev7
[2] = biological target: T1, Rev7; remark: listed apart in the source
[3] = biological target: T2, Rev1

Binder	fold change in reporter activity over the highest negative control [1]	fold change in reporter activity over the highest negative control [3]	further results
B1	2 fold		
B2			fold change in reporter activity over the highest negative control [2]: 6.27 fold
B3	1.49 fold		
B4		4.15 fold	
B5		3.01 fold	
